Publication PMC3795569, “Crystal structure of the N-terminal domain of MinC dimerized via domain swapping” (Journal of Synchrotron Radiation, 2013)

Target: the molecule itself
Test: SEC; size-exclusion chromatography of EcoMinCNTD in a broad range of protein concentrations

B1: Escherichia coli MinC N-terminal domain (EcoMinCNTD), residues 1-105 (domain or fragment, UniProt P18196 1-105, looked up)
chain: MSNTPIELKGSSFTLSVVHLHEAEPKVIHQALEDKIAQAPAFLKHAPVVLNVSALEDPVNWSAMHKAVSATGLRVIGVSGCKDAQLKAEIEKMGLPILTEGKEKA
notes: MinC (septum site-determining protein), Escherichia coli, N-terminal domain, residues 1-105; amplified from E. coli genomic DNA (ATCC No. 700926D-5); Cloned into a modified pET-28a vector (BamHI/XhoI); The printed molecular weight is 11863 Da; also called unfused-EcoMinCNTD; source: E. coli BL21 (DE3), purified (Ni-NTA, TEV cleavage, size-exclusion chromatography)
For B1, the “stoichiometry N” value was 2.
